# Reference: article PMC8751750, “Effect of using different co-ligands during ^99mTc-labeling of J18 peptide on SK-MES-1 cell binding and tumor targeting” (Iranian Journal of Basic Medical Sciences, 2021)
# “Also recorded” adds a separate entry of the source. Where two headings read alike, the source gives them in different places. Peptide text beside a SMILES is read from it.
# Legend:
# SK-MES-1 tumors = assay: Biodistribution in SK-MES-1 xenografted nude mice; assay type: in vivo, female C57 nu/nu mice; details: SK-MES-1 xenograft nude mice, n=4; for Intestine uptake (with contents): mean ± SD
# Experimental: (§1) The tumor biodistribution and targeting properties of the radiolabeled peptides were carried out in female C57 nu/nu mice bearing SK-MES-1 (Pasture Institute, North Branch and Amol, Iran). The tumor was grafted by subcutaneous injection of SK-MES-1 cells at a concentration of 4×10^6 cells/mouse into the right front flank of the mice and left to grow over a period of 20 days. The mice were ready for biodistribution when tumor size reached 0.7–1 cm^3 in mean diameter, all mice received intravenous co-injections of (^99mTc) Tc-HYNIC-(Ser)3-J18 peptide 1 or (^99mTc )Tc-HYNIC-(Ser)3-J18 peptide 2 (1 μg in 100 μl buffer) after 1, 2, and 4 hr post-injection, respectively (n=4 mice per group). In order to measure the radiopeptides’ nonspecific uptake of the radiopeptides, one group of four animals was injected with 300 μg of non-labeled peptide in a 50 μl buffer. The mice in the blocking group were euthanized 2 hr after the injection. Mice organ and tissue samples were collected, and radioactivity uptake was calculated as a percentage of the administered dose per gram tissue (%ID/g).
# [1] = Biodistribution in SK-MES-1 xenografted nude mice; assay type: in vivo, female C57 nu/nu mice; details: female, C57 nu/nu, mouse, in vivo, iv, total radioactivity, SK-MES-1 xenograft nude mice, n=4; for tissue uptake at 1 h / tissue uptake at 2 h / tissue uptake at 4 h: mean ± SD
# Experimental: as §1
# SK-MES-1 cells = assay: Saturation binding assay on SK-MES-1 cells; design: species or system human
# Experimental: The affinities of (^99mTc) Tc-HYNIC-peptides were determined utilizing a saturation binding experiment with cultivated cells in vitro for determination of the dissociation constant as KD and the number of binding sites per cell (Bmax). SK-MES-1 cells were incubated for 2 hr at 37 °C with increasing concentrations of (^99mTc) Tc- HYNIC- peptides (0.1, 0.5, 1, 2.5, 5, 25, and 50 nM). One dish served as a blocking sample, and it was immersed in a blocking solution containing a 500-fold excess of the non-labeled peptide. For each concentration, three dishes were utilized. Following incubation, the media was withdrawn, and the cells were trypsinized and collected for Gamma counter activity measurement. Prism 5 software (Ver. 5.0) was used to examine the particular binding data using nonlinear regression.
# A-549 cells = details: previously reported, listed as 99mTc-HYNIC-(Ser)3-J18 (Tricine); cited from earlier work
# Text: Table 1 Overview of affinity binding ^99mTc-HYNIC-(Ser)3-J18 on SK-MES-1 vs A-549 cell line | column: A-549 / Tricine; A-549 / tricine/EDDA
# [2] = system: SK-MES-1, A-549, SKOV-3 and MCF-7 cells; assay: In vitro receptor binding of radiolabeled peptides on four cell lines; design: species or system human; details: 2 hr at 37 °C
# Experimental: The in vitro receptor binding of the^ 99mTc-labeled peptide was evaluated using SK-MES-1 a human lung squamous cell carcinoma, SKOV-3 human ovarian carcinoma, and A-549 human lung adenocarcinoma epithelial and MCF-7 human breast cancer cell lines. All cell lines were kept at 37 °C in a 5% CO2 incubator and were maintained in Dulbecco’s DMEM-high glucose supplemented with 10% FBS. Cells were plated in 24-well plates at a density of 4×10^5 cells/well in 1 ml of complete medium and incubated for 24 hr to allow in cells to settle. Following a wash with cold serum-free media or PBS, 40 nM radiolabeled peptides in the full medium were given to the cells, which were then incubated at 37 °C for 2 hr. Finally, cells in culture plates were trypsinized and released, and radioactivity in the cells was measured. To determine specific versus nonspecific binding, SK-MES-1 cells were seeded into 12-well plates at a density of 5×10^5 cells/well and incubated with unlabeled peptides at a concentration 500-fold higher than the labeled peptide for 20 min at 37 °C, followed by the addition of the radiolabeled peptide to the wells. These cells were incubated for 2 hr at 37 °C in a humidified incubator.
# [3] = 1 ug, i.v. 1 μg in 100 μl, read-out: Muscle uptake
# [4] = 1 ug, i.v. 1 μg in 100 μl, read-out: Spleen uptake
# [5] = 1 ug, i.v. 1 μg in 100 μl, read-out: Tumor uptake
# [6] = 1 ug, read-out: Tumor/blood ratio
# [7] = 1 ug, read-out: Tumor/bone ratio
# [8] = 1 ug, read-out: Tumor/liver ratio
# [9] = 1 ug, read-out: Tumor/muscle ratio
smiles,measurement,setting,value
"CC(C)C[C@H](NC(=O)[C@H](CO)NC(=O)[C@H](CCCNC(=N)N)NC(=O)[C@H](CO)NC(=O)[C@H](CO)NC(=O)[C@H](CO)NC(=O)c1ccc(NN)nc1)C(=O)N[C@@H](Cc1c[nH]c2ccccc12)C(=O)N[C@@H](CO)C(=O)N[C@@H](CC(=O)O)C(=O)N[C@@H](Cc1ccccc1)C(=O)N[C@@H](Cc1ccc(O)cc1)C(=O)N[C@@H](C)C(=O)N[C@@H](CO)C(=O)N[C@@H](C)C(=O)N[C@@H](CO)C(=O)N[C@@H](CCCNC(=N)N)C(=O)NCC(=O)N1CCC[C@H]1C(=O)O [Peptide 1, (^99mTc)Tc-HYNIC-(Ser)3-J18 with tricine, metal not drawn] (HELM PEPTIDE1{[NNc1ccc(C(=O)[*:2])cn1].S.S.S.R.S.L.W.S.D.F.Y.A.S.A.S.R.G.P}$$$$V2.0; C-terminus assumed)",Intestine uptake (with contents),"SK-MES-1 tumors; 1 hr, i.v. 1 μg in 100 μl",0.73±0.06 percentage of injected dose per whole sample
same,Tumor/muscle ratio,"SK-MES-1 tumors; 1 hr, listed as 99mTc-peptide 1",5.1
same,Intestine uptake (with contents),"SK-MES-1 tumors; 2h-blocked (300 μg non-labeled peptide 0.5 hr before), i.v. 1 μg",0.24 ±0.09 percentage of injected dose per whole sample
same,Intestine uptake (with contents),"SK-MES-1 tumors; 2 hr, i.v. 1 μg in 100 μl",0.59±0.02 percentage of injected dose per whole sample
same,Intestine uptake (with contents),"SK-MES-1 tumors; 4 hr, i.v. 1 μg in 100 μl",0.04±0.01 percentage of injected dose per whole sample
same,tissue uptake at 1 h,"[1]; 1 ug, i.v. 1 μg in 100 μl, read-out: Blood uptake",0.18 ± 0.09 %ID/g
same,tissue uptake at 1 h,[1]; [3],0.19 ± 0.05 %ID/g
same,tissue uptake at 1 h,[1]; [4],0.25 ± 0.07 %ID/g
same,tissue uptake at 1 h,"[1]; 1 ug, i.v. 1 μg in 100 μl, read-out: Stomach uptake",0.38 ± 0.09 %ID/g
same,tissue uptake at 1 h,[1]; [5],0.97 ± 0.03 %ID/g
same,tissue to tissue ratio at 1 h,[1]; [6],5.36
same,tissue to tissue ratio at 1 h,[1]; [7],7.46
same,tissue to tissue ratio at 1 h,[1]; [8],3.59
same,tissue to tissue ratio at 1 h,[1]; [9],5.1
same,tissue uptake at 2 h,"[1]; 1 ug, 2 hr, i.v. 1 μg in 100 μl, read-out: Heart uptake",0.12 ± 0.04 %ID/g
same,tissue uptake at 2 h,"[1]; 1 ug, 2 hr, i.v. 1 μg in 100 μl, read-out: Liver uptake",0.2 ± 0.09 %ID/g
same,tissue uptake at 2 h,"[1]; 1 ug, 2 hr, i.v. 1 μg in 100 μl, read-out: SG&T (salivary glands and thyroid) uptake",0.13 ± 0.05 %ID/g
same,tissue uptake at 2 h,"[1]; 1 ug, 2 hr, i.v. 1 μg in 100 μl, read-out: Spleen uptake",0.15 ± 0.04 %ID/g
same,tissue uptake at 2 h,"[1]; 1 ug, 2 hr, i.v. 1 μg in 100 μl, read-out: Stomach uptake",0.25 ± 0.03 %ID/g
same,tissue uptake at 2 h,"[1]; 1 ug, 2 hr, i.v. 1 μg in 100 μl, read-out: Tumor uptake",0.5 ± 0.03 %ID/g
same,tissue to tissue ratio at 2 h,"[1]; 1 ug, 2 hr, read-out: Tumor/liver ratio",2.5
same,tissue to tissue ratio at 2 h,"[1]; 1 ug, 2 hr, read-out: Tumor/muscle ratio",6.16
same,tissue uptake at 4 h,"[1]; 1 ug, i.v. 1 μg in 100 μl, read-out: Bone uptake",0.01 %ID/g
same,tissue uptake at 4 h,"[1]; 1 ug, i.v. 1 μg in 100 μl, read-out: Heart uptake",0.07 ± 0.01 %ID/g
same,tissue uptake at 4 h,"[1]; 1 ug, i.v. 1 μg in 100 μl, read-out: Kidney uptake",0.27 ± 0.03 %ID/g
same,tissue uptake at 4 h,"[1]; 1 ug, i.v. 1 μg in 100 μl, read-out: Liver uptake",0.07 ± 0.02 %ID/g
same,tissue uptake at 4 h,"[1]; 1 ug, i.v. 1 μg in 100 μl, read-out: Lung uptake",0.04 ± 0.01 %ID/g
same,tissue uptake at 4 h,[1]; [3],0.04 ± 0.01 %ID/g
same,tissue uptake at 4 h,"[1]; 1 ug, i.v. 1 μg in 100 μl, read-out: SG&T (salivary glands and thyroid) uptake",0.03 ± 0.02 %ID/g
same,tissue uptake at 4 h,[1]; [4],0.03 ± 0.01 %ID/g
same,tissue uptake at 4 h,[1]; [5],0.2 ± 0.09 %ID/g
same,tissue to tissue ratio at 4 h,[1]; [6],3.81
same,tissue to tissue ratio at 4 h,[1]; [7],20
same,tissue to tissue ratio at 4 h,"[1]; 1 ug, read-out: Tumor/kidney ratio",0.74
same,tissue to tissue ratio at 4 h,[1]; [8],2.85
same,tissue to tissue ratio at 4 h,[1]; [9],5
same,tissue uptake at 2 h,"[1]; 2h-blocked (300 μg non-labeled peptide 0.5 hr before), i.v. 1 μg, read-out: Blood uptake",0.36 ± 0.02 %ID/g
same,tissue uptake at 2 h,"[1]; 2h-blocked (300 μg non-labeled peptide 0.5 hr before), i.v. 1 μg, read-out: Heart uptake",0.18 ± 0.03 %ID/g
same,tissue uptake at 2 h,"[1]; 2h-blocked (300 μg non-labeled peptide 0.5 hr before), i.v. 1 μg, read-out: Kidney uptake",3.2 ± 0.02 %ID/g
same,tissue uptake at 2 h,"[1]; 2h-blocked (300 μg non-labeled peptide 0.5 hr before), i.v. 1 μg, read-out: Liver uptake",0.23 ± 0.04 %ID/g
same,tissue uptake at 2 h,"[1]; 2h-blocked (300 μg non-labeled peptide 0.5 hr before), i.v. 1 μg, read-out: Muscle uptake",0.23 ± 0.03 %ID/g
same,tissue uptake at 2 h,"[1]; 2h-blocked (300 μg non-labeled peptide 0.5 hr before), i.v. 1 μg, read-out: SG&T (salivary glands and thyroid) uptake",0.17 ± 0.02 %ID/g
same,tissue uptake at 2 h,"[1]; 2h-blocked (300 μg non-labeled peptide 0.5 hr before), i.v. 1 μg, read-out: Spleen uptake",0.2 ± 0.01 %ID/g
same,tissue uptake at 2 h,"[1]; 2h-blocked (300 μg non-labeled peptide 0.5 hr before), i.v. 1 μg, read-out: Stomach uptake",0.3 ± 0.02 %ID/g
same,tissue to tissue ratio at 2 h,"[1]; 2h-blocked (300 μg non-labeled peptide), read-out: Tumor/blood ratio",0.8
same,tissue to tissue ratio at 2 h,"[1]; 2h-blocked (300 μg non-labeled peptide), read-out: Tumor/liver ratio",1.26
same,tissue to tissue ratio at 2 h,"[1]; 2h-blocked (300 μg non-labeled peptide), read-out: Tumor/muscle ratio",1.26
same,Bmax,"SK-MES-1 cells; Figure 4, saturation binding, 2 hr at 37 °C, listed as 99mTc-(tricine)-HYNIC-(Ser)3-J18",(2.2±0.2)·10^4 binding sites/cell
same,"binding affinity for SK-MES-1, in words",SK-MES-1 cells; listed as 99mTc-peptide 1,high binding affinity; also recorded: good receptor-binding affinity
same,Kd,"SK-MES-1 cells; saturation binding, 0.1-50 nM, 2 hr at 37 °C, blocking with 500-fold excess non-labeled peptide, three dishes per concentration, Prism 5 nonlinear regression, listed as 99mTc-HYNIC-(Ser)3-J18 (Tricine)",3.1 ± 0.3 nM
same,Bmax,"SK-MES-1 cells; saturation binding, 0.1-50 nM, 2 hr at 37 °C, three dishes per concentration, Prism 5 nonlinear regression, listed as 99mTc-HYNIC-(Ser)3-J18 (Tricine)",(2.2± 0.2)×10 ^4 binding sites/cell
same,Kd,A-549 cells,4.1 ± 1.3 nM
same,"cellular affinity, in words",[2]; 40 nM radiolabeled peptide,strongest cellular affinity for the SK-MES-1 cell line
same,"receptor binding affinity (as CPM/Cells value), tricine vs tricine/EDDA as coligand","[2]; higher than tricine/EDDA as coligand, 40 nM",2.5 fold
